In the test the test system is GST-p12_WT. The test can be described thus: SILAC-MS of proteins enriched with GST-p12_WT relative to GST. The class given is binding, Mo-MLV. As to conditions: for SDs from the mean: log2(GST-p12_WT, Heavy/GST, Light). The text has this: To test whether GST-p12 was acting like the p12 region of Gag, we used a global proteomic approach based on stable isotope labelling by amino acids in cell culture (SILAC)-mass spectrometry (MS) to look for host proteins that interact with GST-p12 [35, 36]. A schematic diagram of the workflow is illustrated in Fig 4A. Briefly, GST, GST-p12_mut14 and GST-p12_WT were transiently-expressed in 293T cells cultured in light (R0/K0), medium (R6/K4) and heavy (R10/K8) SILAC media, respectively. Next, lysates of nocodazole treated transfected cells were prepared, normalised and used for parallel pull-down assays with glutathione-sepharose beads. The eluates from the beads were then pooled in a 1:1:1 ratio and subjected to LC-MS/MS analysis. The experiment was performed using biological replicates to test reproducibility of the mass-spec hits. The pull-down assays for this experiment were performed using mitotic cell lysates to facilitate identification of any potential chromatin interactions that were previously missed.
After removal of obvious contaminants (e.g. keratin) and non-quantified hits, 948 and 879 proteins were identified in replicates 1 and 2 (R1 and R2) of the experiment respectively (the false discovery rate (FDR) was set at 5%). To select proteins enriched in the heavy-labelled (H) GST-p12_WT sample relative to the light-labelled (L) GST sample, we compared the log2(H/L) silac ratios of the mass-spectrometry hits. When plotted as a frequency distribution, the log2(H/L) ratios of each replicate fitted well to a normal distribution curve (R^2 ≥ 0.98), allowing the mean and standard deviation to be accurately estimated (Fig 4B). In this experiment, contaminants/non-specifically bound cellular proteins were assumed to cluster around the mean of the distribution. […] Twenty one such proteins were identified in R1 and 22 identified in R2 (Fig 4B Venn diagram). […] These proteins were then ranked based on normalised abundance in the group. In mass-spectrometry analysis, larger proteins are in general assigned higher scores. Therefore, to control for protein size, we divided the number of peptide spectral matches identified for each protein with its length and then normalised the values across the group (Fig 4C and 4D). When ranked this way, the clathrin heavy chain (CLTC), clathrin interactor 1 (CLINT1) and NEDD4-like E3 ubiquitin ligase (WWP2) were identified as the top three hits. […] The function of clathrin in MLV infection is unclear. […] Thus, clathrin binding may be relevant to the early stages of MLV replication and should be investigated further.
For SILAC-MS experiments, 293T cells were grown is media containing light (R0K0, ^12C-Arginine and ^12C-Lysine), medium (R6K4, ^13C-Arginine and Lysine-4,4,5,5-d4) or heavy (R10K8, ^13C+^15N-Arginine and ^13C+^15N-Lysine) versions of L-Arginine and L-Lysine amino acids (Pierce) for a minimum of 6 doublings before transient expression of GST-p12 proteins. After performing the glutathione-sepharose pull-down assays equivalent volumes of the beads eluates were pooled and submitted to the Bristol University Proteomics Facility for RP nano-LC-MS/MS analysis. This analysis was performed on an LTQ-Orbitrap Velos mass spectrometer in line with a Dionex Ultimate 3000 nanoHPLC system as described in [53].
Supplementary file ppat.1007117.s005.xlsx: S1 Table Results from the first SILAC-MS analysis. GST, Mo-MLV GST-p12_mut14 or GST-p12_WT were transiently-expressed in 293T cells cultured in light (R0/K0), medium (R6/K4) and heavy (R10/K8) SILAC media, respectively. Mitotic cell lysates were subsequently used for glutathione-sepharose bead pull-down assays. Bead eluates were pooled in a 1:1:1 ratio and then analysed by LC-MS/MS. […] (XLSX) Click here for additional data file.

B1: Clathrin interactor 1: Q14677 (protein)
chain: MLNMWKVRELVDKATNVVMNYSEIESKVREATNDDPWGPSGQLMGEIAKATFMYEQFPELMNMLWSRMLKDNKKNWRRVYKSLLLLAYLIRNGSERVVTSAREHIYDLRSLENYHFVDEHGKDQGINIRQKVKELVEFAQDDDRLREERKKAKKNKDKYVGVSSDSVGGFRYSERYDPEPKSKWDEEWDKNKSAFPFSDKLGELSDKIGSTIDDTISKFRRKDREDSPERCSDSDEEKKARRGRSPKGEFKDEEETVTTKHIHITQATETTTTRHKRTANPSKTIDLGAAAHYTGDKASPDQNASTHTPQSSVKTSVPSSKSSGDLVDLFDGTSQSTGGSADLFGGFADFGSAAASGSFPSQVTATSGNGDFGDWSAFNQAPSGPVASSGEFFGSASQPAVELVSGSQSALGPPPAASNSSDLFDLMGSSQATMTSSQSMNFSMMSTNTVGLGLPMSRSQNTDMVQKSVSKTLPSTWSDPSVNISLDNLLPGMQPSKPQQPSLNTMIQQQNMQQPMNVMTQSFGAVNLSSPSNMLPVRPQTNALIGGPMPMSMPNVMTGTMGMAPLGNTPMMNQSMMGMNMNIGMSAAGMGLTGTMGMGMPNIAMTSGTVQPKQDAFANFANFSK
As for B1, where the note is “Replicate 1”, the “Normalised (PSMs/Length)” value is given as 26.4693, the PSMs stood at 18 and the PSMs/Length amounted to 0.0288. Further, under “Replicate 2”, the “Normalised (PSMs/Length)” value is reported as 22.9214, the PSMs is reported as 16, the PSMs/Length amounted to 0.0256 and the “SDs from the mean” value was found to be 13.1531.

B2: Clathrin light chain A: P09496 (protein)
chain: MAELDPFGAPAGAPGGPALGNGVAGAGEEDPAAAFLAQQESEIAGIENDEAFAILDGGAPGPQPHGEPPGGPDAVDGVMNGEYYQESNGPTDSYAAISQVDRLQSEPESIRKWREEQMERLEALDANSRKQEAEWKEKAIKELEEWYARQDEQLQKTKANNRVADEAFYKQPFADVIGYVTNINHPCYSLEQAAEEAFVNDIDESSPGTEWERVARLCDFNPKSSKQAKDVSRMRSVLISLKQAPLVH
On to B2, for which, under “Replicate 1”, the “Normalised (PSMs/Length)” value was determined as 7.412, the PSMs came to 2 and the PSMs/Length is listed as 0.008065. For the same molecule, where the note is “Replicate 2”, the “Normalised (PSMs/Length)” value was found to be 7.2207, the PSMs is given as 2, the PSMs/Length is recorded as 0.008065 and the “SDs from the mean” value was determined as 7.68.
